How the values were obtained:
Human plasma sIL-6R [1] = molecular target: T1, Human plasma sIL-6R (human, UniProt P08887 20-355, limits assumed); assay: plasma potency ELISA, human plasma, high IL-6 (EC95)
T1 construct: also called plasma-derived human IL-6R
T1 sequence (looked up): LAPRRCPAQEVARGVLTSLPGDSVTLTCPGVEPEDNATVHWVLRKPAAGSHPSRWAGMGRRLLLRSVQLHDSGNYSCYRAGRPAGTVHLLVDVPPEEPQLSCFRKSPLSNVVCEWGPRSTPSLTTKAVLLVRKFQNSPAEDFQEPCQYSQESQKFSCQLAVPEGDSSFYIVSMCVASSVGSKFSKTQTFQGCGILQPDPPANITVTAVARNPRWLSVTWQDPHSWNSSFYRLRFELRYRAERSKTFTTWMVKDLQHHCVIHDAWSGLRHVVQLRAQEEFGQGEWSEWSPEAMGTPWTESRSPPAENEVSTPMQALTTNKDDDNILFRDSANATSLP

Cyno plasma sIL-6R [2] = molecular target: T2, Cyno plasma sIL-6R (cynomolgus monkey, UniProt A0A2K5WN54 60-396); assay: plasma potency ELISA, human against cyno plasma
T2 construct: also called cynomolgus sIL-6R
T2 sequence: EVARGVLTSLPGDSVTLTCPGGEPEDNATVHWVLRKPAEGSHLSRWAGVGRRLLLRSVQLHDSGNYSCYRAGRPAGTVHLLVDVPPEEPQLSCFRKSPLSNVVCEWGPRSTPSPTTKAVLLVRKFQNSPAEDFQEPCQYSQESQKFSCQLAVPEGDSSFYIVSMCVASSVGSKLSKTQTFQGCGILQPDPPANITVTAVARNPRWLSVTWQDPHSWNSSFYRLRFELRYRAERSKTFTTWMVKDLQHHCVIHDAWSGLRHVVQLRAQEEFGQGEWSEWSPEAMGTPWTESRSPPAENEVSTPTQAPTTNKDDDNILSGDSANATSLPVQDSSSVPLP

[3] = molecular target: T3, Human membrane IL-6R on cells (human, UniProt P08887 20-468); assay: cell-based or functional assay
T3 sequence (looked up): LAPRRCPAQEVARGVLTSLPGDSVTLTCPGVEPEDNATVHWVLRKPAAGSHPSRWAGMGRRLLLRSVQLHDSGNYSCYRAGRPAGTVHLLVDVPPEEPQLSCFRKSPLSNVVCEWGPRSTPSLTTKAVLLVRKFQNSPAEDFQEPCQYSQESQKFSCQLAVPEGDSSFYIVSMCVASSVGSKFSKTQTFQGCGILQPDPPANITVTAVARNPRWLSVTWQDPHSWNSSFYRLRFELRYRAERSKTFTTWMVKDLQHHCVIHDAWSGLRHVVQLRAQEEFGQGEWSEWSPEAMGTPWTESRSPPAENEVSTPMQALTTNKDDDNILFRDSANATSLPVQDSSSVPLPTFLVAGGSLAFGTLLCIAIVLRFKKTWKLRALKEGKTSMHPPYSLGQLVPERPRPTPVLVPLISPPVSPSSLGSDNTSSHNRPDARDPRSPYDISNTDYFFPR

[4] = molecular target: T3, Human membrane IL-6R on cells; assay: cell-based or functional assay; remark: listed apart in the source
Human plasma sIL-6R [5] = molecular target: T1, Human plasma sIL-6R; assay: plasma potency assay, human plasma, 42 nM IL6; blocked ligand IL-6
Description: (§1) All 5 affinity matured Nanobodies and the sequence optimized Nanobody were also tested in a plasma potency assay. […] TMB was used as substrate.

Human plasma sIL-6R [6] = molecular target: T1, Human plasma sIL-6R; assay: plasma potency ELISA, human plasma; human plasma
[7] = molecular target: T3, Human membrane IL-6R on cells; assay: cell-based or functional assay; remark: listed apart in the source
Human plasma sIL-6R [8] = molecular target: T1, Human plasma sIL-6R; assay: plasma potency ELISA, human plasma
Cyno plasma sIL-6R [9] = molecular target: T2, Cyno plasma sIL-6R; assay: plasma potency ELISA, cyno plasma
Human plasma sIL-6R [10] = molecular target: T1, Human plasma sIL-6R; assay: plasma potency ELISA, human plasma, normal IL-6 (EC50)
Human plasma sIL-6R [11] = molecular target: T1, Human plasma sIL-6R; assay: plasma potency ELISA, human plasma + human IL-6 50 ng/mL; sIL-6R captured on BN-12, bound IL-6 detected; blocked ligand IL-6
Cyno plasma sIL-6R [12] = molecular target: T2, Cyno plasma sIL-6R; assay: plasma potency ELISA, cyno plasma + human IL-6 50 ng/mL; sIL-6R captured on BN-12, bound IL-6 detected; blocked ligand IL-6
Human plasma sIL-6R [13] = molecular target: T1, Human plasma sIL-6R; assay: plasma potency assay, human plasma, 2.4 nM IL6; blocked ligand IL-6
Description: as §1

B1: Reference IgG (antibody, V domains shown)
VH: QVQLQESGPGLVRPSQTLSLTCTVSGYSITSDHAWSWVRQPPGRGLEWIGYISYSGITTYNPSLKSRVTMLRDTSKNQFSLRLSSVTAADTAVYYCARSLARTTAMDYWGQGSLVTVSS
VL: DIQMTQSPSSLSASVGDRVTITCRASQDISSYLNWYQQKPGKAPKLLIYYTSRLHSGVPSRFSGSGSGTDFTFTISSLQPEDIATYYCQQGNTLPYTFGQGTKVEIKR
notes: Full-length human IgG1 produced in CHO cells
Human plasma sIL-6R [1]
  IC50: 1.69 nM
Cyno plasma sIL-6R [2]
  Ratio (human/cyno) of IC50: 1.55
[3]
  IC50 (nM) + HSA, XG-1 proliferation assay: 0.47 nM
[4]
  IC50 (nM), TF-1 proliferation at 100 IU/mL IL-6: 0.921 nM
Human plasma sIL-6R [5]
  IC50: 1.7 nM
Human plasma sIL-6R [6]
  IC50: 0.258 nM
[7]
  IC50 (nM), TF-1 proliferation at 5000 IU/mL IL-6: 144 nM
Human plasma sIL-6R [8]
  Ratio (high/low) of IC50: 6.54
Cyno plasma sIL-6R [9]
  IC50: 0.166 nM
Human plasma sIL-6R [10]
  IC50: 0.258 nM
Human plasma sIL-6R [11]
  IC50 (read off the curve): ~0.04 nM
Cyno plasma sIL-6R [12]
  IC50 (read off the curve): ~0.01 nM
Human plasma sIL-6R [13]
  IC50: 0.2 nM

From patent US20120077731A1 (Ablynx, published 2012)
